The supplement of paper PMC10126150
± gives the standard deviation of the averaged measurements.

System: ATP
Experiment: switch fluorescence ratio, 500 uM ATP over buffer (Cy3 cluster intensity, sum of 5 cycles each) (fold (ratio)); higher = stronger signal-on switching upon ATP binding; sequences stand for … in TCGTCGGCAGCGTCAGATGTGTATAAGAGACAGTTTTTTTTTTTTTTTTTTTTTTTTT…TC
Conditions: aptamer strand: ATP DNA aptamer (quencher-CACCTGGGGGAGTATTGCGGAGGAAGG + anchor), 100 nM annealed; ATP concentration: 500 uM
Outline: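 Five buffer/ATP imaging cycles were run on Cy3-labelled switching-strand clusters on a modified Illumina MiSeq flow-cell, with NaOH stripping and re-annealing between cycles. In each cycle, clusters annealed to 100 nM quencher-labelled ATP aptamer were imaged in selection buffer, then after 15 min with 500 uM ATP at 22 °C. Per cluster, the fluorescence ratio is summed target-cycle over summed buffer-cycle Cy3 intensity, averaged per switch-domain sequence. Only clusters within 100-1000 RFU were kept.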
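Also: ATP exposure 15 min at 22 °C before imaging.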

| Sequence | switch fluorescence ratio |
| --- | --- |
| TTTTTTCCGA | 1.02 ± 0.046 |
| TTTTTTCCTC | 1.1 ± 0.2 |
| TTTTTTCGGT | 1.01 ± 0.051 |
| TTTTTTCTAC | 1.31 ± 0.67 |
| TTTTTTCTCG | 1.04 ± 0.078 |
| TTTTTTCTTA | 0.995 ± 0.023 |
| TTTTTTCTTG | 1.02 ± 0.034 |
| TTTTTTGACG | 0.9938 ± 0.0062 |
| TTTTTTGAGG | 0.981 ± 0.025 |
| TTTTTTGAGT | 1 ± 0.023 |
| TTTTTTGATG | 1.01 ± 0.027 |
| TTTTTTGCAG | 0.987 ± 0.029 |
| TTTTTTGCCA | 1.01 ± 0.051 |
| TTTTTTGCCC | 1.02 ± 0.048 |
| TTTTTTGCTA | 1.01 ± 0.026 |
| TTTTTTGCTG | 0.985 ± 0.026 |
| TTTTTTGGG | 0.9686 ± 0.0027 |

| Sequence | switch fluorescence ratio |
| --- | --- |
| TTTTTTGGGA | 1.01 ± 0.019 |
| TTTTTTGGGG | 0.984 ± 0.023 |
| TTTTTTGTAT | 1.02 ± 0.087 |
| TTTTTTGTCT | 0.993 ± 0.021 |
| TTTTTTGTGT | 0.991 ± 0.03 |
| TTTTTTGTT | 0.977 ± 0.034 |
| TTTTTTGTTT | 1 ± 0.029 |
| TTTTTTTATA | 0.991 ± 0.024 |
| TTTTTTTCAG | 1.01 ± 0.016 |
| TTTTTTTCGT | 1.07 ± 0.21 |
| TTTTTTTCT | 1.01 ± 0.046 |
| TTTTTTTGAG | 1.02 ± 0.026 |
| TTTTTTTGAT | 1.16 ± 0.53 |
| TTTTTTTGTG | 0.984 ± 0.019 |
| TTTTTTTT | 1.04 ± 0.047 |
| TTTTTTTTGA | 0.998 ± 0.017 |
